According to US20100297606A1:

Molecular target: humanized anti-human IL-6 receptor monoclonal IgG antibody MRA (tocilizumab), untreated
Assay: dot blot of untreated MRA on nitrocellulose (1.5 to 100 ng per spot), biotinylated peptide with HRP-conjugated streptavidin

detection limit: 6 ng/spot
Substance: Fc-III peptide
